The values below come from the supplement of paper PMC9112550, “Optimization of the antimicrobial peptide Bac7 by deep mutational scanning” (BMC Biology, 2022).

This data set has as its system Escherichia coli TOP10. Put plainly: shrunken log2 fold change of peptide-encoding DNA abundance (4.5 h post-induction vs induction); higher = less antimicrobial activity (less host growth inhibition). As to conditions: time post-induction: 4.5 h; library: site-saturation at positions 5, 18, 19, 20.
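Further: peptides expressed intracellularly from a pBAD plasmid library in pooled LB shake-flask culture, induced with 0.3% L-arabinose, DNA abundance read by NGS, three biological replicates, DESeq2 with apeglm shrinkage.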

As to RRIRWRPPRLPRPRPRPFMHPRP, the “shrunken log2 fold change” value was -0.153.
Regarding RRIRLRPPRLPRPRPRPSKYPRP, the “shrunken log2 fold change” value was -0.578.
On to RRIRSRPPRLPRPRPRPSIGPRP, for which the “shrunken log2 fold change” value came out at 0.347.
Take RRIRIRPPRLPRPRPRPCSIPRP: the “shrunken log2 fold change” value is -0.012.
The figure for RRIRHRPPRLPRPRPRPDIGPRP is 0.0697; for RRIRRRPPRLPRPRPRPYQKPRP it is -0.458; for RRIRWRPPRLPRPRPRPNPQPRP it is -0.0303.
The figure for RRIRRRPPRLPRPRPRPDMGPRP is 0.00408.
RRIRLRPPRLPRPRPRPWHIPRP: the “shrunken log2 fold change” value amounted to 0.0292.
The figure for RRIRCRPPRLPRPRPRPDNDPRP is -0.124.
The figure for RRIRVRPPRLPRPRPRPWSKPRP is -0.2; for RRIRFRPPRLPRPRPRPGAKPRP it is 0.118.
The figure for RRIRARPPRLPRPRPRPHFQPRP is 0.0811; for RRIRYRPPRLPRPRPRPYAQPRP it is -1.36.
As for RRIRPRPPRLPRPRPRPEHRPRP, the “shrunken log2 fold change” value is 0.0967.
The figure for RRIRNRPPRLPRPRPRPCDMPRP is 0.0184; for RRIRKRPPRLPRPRPRPADAPRP it is 0.194.
Turning to RRIRARPPRLPRPRPRPTLIPRP, the “shrunken log2 fold change” value is 0.573.
The figure for RRIRFRPPRLPRPRPRPPVWPRP is 0.622; for RRIRDRPPRLPRPRPRPAGLPRP it is 0.0252; for RRIRQRPPRLPRPRPRPNKHPRP it is -0.622.
The figure for RRIRARPPRLPRPRPRPFLKPRP is -0.349; for RRIRFRPPRLPRPRPRPVTSPRP it is -0.0369.
Regarding RRIRIRPPRLPRPRPRPLHWPRP, the “shrunken log2 fold change” value was -0.138.
The figure for RRIRKRPPRLPRPRPRPWKLPRP is -0.14; for RRIRWRPPRLPRPRPRPVDYPRP it is 0.0136; for RRIRPRPPRLPRPRPRPVTVPRP it is -0.163.
The figure for RRIRFRPPRLPRPRPRPDWRPRP is 0.0737; for RRIRTRPPRLPRPRPRPYPDPRP it is -0.0217.
RRIRTRPPRLPRPRPRPDMYPRP: the “shrunken log2 fold change” value is -0.235.
The figure for RRIRPRPPRLPRPRPRPQTDPRP is -0.0886; for RRIRMRPPRLPRPRPRPNENPRP it is 0.314; for RRIRFRPPRLPRPRPRPLQMPRP it is 0.236.
The figure for RRIRERPPRLPRPRPRPIVMPRP is -0.86; for RRIRWRPPRLPRPRPRPYFNPRP it is -1.06; for RRIRMRPPRLPRPRPRPWPQPRP it is 0.729.
For RRIRCRPPRLPRPRPRPLMYPRP, the “shrunken log2 fold change” value is -0.606.
The figure for RRIRARPPRLPRPRPRPARTPRP is 0.584.
The figure for RRIRFRPPRLPRPRPRPTCAPRP is 0.564.
The figure for RRIRERPPRLPRPRPRPITGPRP is -0.0908.
In the case of RRIRIRPPRLPRPRPRPHWFPRP, the “shrunken log2 fold change” value is 0.022.
The figure for RRIRDRPPRLPRPRPRPARRPRP is 0.59; for RRIRLRPPRLPRPRPRPQFPPRP it is 0.172; for RRIRARPPRLPRPRPRPGRSPRP it is 0.206.
The figure for RRIRFRPPRLPRPRPRPPRYPRP is 0.246.
As for RRIRLRPPRLPRPRPRPCNHPRP, the “shrunken log2 fold change” value was -0.0991.
As for RRIRHRPPRLPRPRPRPKQNPRP, the “shrunken log2 fold change” value was 0.139.
The figure for RRIRVRPPRLPRPRPRPIDSPRP is -0.0289; for RRIRARPPRLPRPRPRPKFEPRP it is 0.574; for RRIRNRPPRLPRPRPRPGVLPRP it is 0.222.
The figure for RRIRHRPPRLPRPRPRPRDHPRP is 0.175; for RRIRLRPPRLPRPRPRPATEPRP it is 0.149; for RRIRQRPPRLPRPRPRPANTPRP it is -0.118.
The figure for RRIRWRPPRLPRPRPRPLIWPRP is 0.515; for RRIRCRPPRLPRPRPRPQINPRP it is -0.685.
In the case of RRIRIRPPRLPRPRPRPWPQPRP, the “shrunken log2 fold change” value is 0.0274.
In the case of RRIRDRPPRLPRPRPRPNVFPRP, the “shrunken log2 fold change” value was -0.268.
With RRIRIRPPRLPRPRPRPGWCPRP, the “shrunken log2 fold change” value is -0.082.
The figure for RRIRKRPPRLPRPRPRPHGMPRP is -0.00215; for RRIRFRPPRLPRPRPRPPDDPRP it is 0.371.
On to RRIRWRPPRLPRPRPRPPDMPRP, for which the “shrunken log2 fold change” value was 0.0014.
The figure for RRIRPRPPRLPRPRPRPNLGPRP is -0.242.
On to RRIRDRPPRLPRPRPRPFFRPRP, for which the “shrunken log2 fold change” value is -0.0152.
The figure for RRIRVRPPRLPRPRPRPGCQPRP is -0.0161.
With RRIRCRPPRLPRPRPRPLGLPRP, the “shrunken log2 fold change” value was -0.0163.
The figure for RRIRLRPPRLPRPRPRPWLVPRP is -0.0391; for RRIRRRPPRLPRPRPRPQARPRP it is 0.246; for RRIRTRPPRLPRPRPRPCSNPRP it is -0.0243.
As to RRIRGRPPRLPRPRPRPWTAPRP, the “shrunken log2 fold change” value is 0.172.
In the case of RRIRARPPRLPRPRPRPISPPRP, the “shrunken log2 fold change” value was -0.141.
As for RRIRARPPRLPRPRPRPDKMPRP, the “shrunken log2 fold change” value was determined as 0.104.
As to RRIRSRPPRLPRPRPRPGFHPRP, the “shrunken log2 fold change” value is 0.0792.
The figure for RRIRVRPPRLPRPRPRPWEMPRP is -0.00133; for RRIRFRPPRLPRPRPRPLKKPRP it is 0.251; for RRIRHRPPRLPRPRPRPCRTPRP it is 0.00884.
On to RRIRIRPPRLPRPRPRPDRQPRP, for which the “shrunken log2 fold change” value was found to be 0.0357.
Turning to RRIRSRPPRLPRPRPRPPDNPRP, the “shrunken log2 fold change” value is -0.0697.
RRIRKRPPRLPRPRPRPKGLPRP: the “shrunken log2 fold change” value was -0.00973.
The figure for RRIRHRPPRLPRPRPRPLFMPRP is -0.492; for RRIRPRPPRLPRPRPRPKHEPRP it is 0.0756.
The figure for RRIRCRPPRLPRPRPRPWTVPRP is -0.145; for RRIRARPPRLPRPRPRPWAKPRP it is 0.334.
The figure for RRIRVRPPRLPRPRPRPFRHPRP is -0.185; for RRIRHRPPRLPRPRPRPCYPPRP it is -0.384; for RRIRTRPPRLPRPRPRPLMPPRP it is 0.0315.
Regarding RRIRCRPPRLPRPRPRPGQEPRP, the “shrunken log2 fold change” value stood at 0.094.
Regarding RRIRDRPPRLPRPRPRPKCVPRP, the “shrunken log2 fold change” value amounted to 0.104.
RRIRCRPPRLPRPRPRPQMQPRP: the “shrunken log2 fold change” value was -0.347.
The figure for RRIRPRPPRLPRPRPRPSNRPRP is -0.783.
For RRIRMRPPRLPRPRPRPWKDPRP, the “shrunken log2 fold change” value was -0.0578.
The figure for RRIRYRPPRLPRPRPRPRSAPRP is -0.0647; for RRIRLRPPRLPRPRPRPSDYPRP it is -0.106; for RRIRPRPPRLPRPRPRPAFEPRP it is 0.139.
On to RRIRDRPPRLPRPRPRPYIPPRP, for which the “shrunken log2 fold change” value was -0.456.
The figure for RRIRYRPPRLPRPRPRPLLCPRP is -0.287; for RRIRNRPPRLPRPRPRPYYEPRP it is -0.793; for RRIRNRPPRLPRPRPRPKRAPRP it is 0.146.
Take RRIRSRPPRLPRPRPRPVPLPRP: the “shrunken log2 fold change” value is -0.0843.
On to RRIRQRPPRLPRPRPRPLKVPRP, for which the “shrunken log2 fold change” value is -0.102.
On to RRIRPRPPRLPRPRPRPLSPPRP, for which the “shrunken log2 fold change” value was -0.113.
Regarding RRIRRRPPRLPRPRPRPDRIPRP, the “shrunken log2 fold change” value amounted to 0.14.
For RRIRRRPPRLPRPRPRPKCEPRP, the “shrunken log2 fold change” value came to 0.0268.
The figure for RRIRERPPRLPRPRPRPSGMPRP is -0.46; for RRIRFRPPRLPRPRPRPGRIPRP it is 0.0413.
The figure for RRIRCRPPRLPRPRPRPTNNPRP is -0.619; for RRIRQRPPRLPRPRPRPEQFPRP it is 0.0588; for RRIRDRPPRLPRPRPRPLLRPRP it is 0.0308.
The figure for RRIRGRPPRLPRPRPRPNNDPRP is 0.247.
Consider RRIRVRPPRLPRPRPRPYRGPRP, for which the “shrunken log2 fold change” value was -0.402.
With RRIRGRPPRLPRPRPRPVMLPRP, the “shrunken log2 fold change” value worked out at 0.317.
As for RRIRLRPPRLPRPRPRPHIWPRP, the “shrunken log2 fold change” value was -0.278.
The figure for RRIRDRPPRLPRPRPRPAAVPRP is 0.609.
For the sequence RRIRMRPPRLPRPRPRPIAEPRP, the “shrunken log2 fold change” value turned out to be 3.46.
The figure for RRIRMRPPRLPRPRPRPQQCPRP is 0.143; for RRIRERPPRLPRPRPRPRGHPRP it is 0.0666.
The figure for RRIRWRPPRLPRPRPRPYCPPRP is -0.441; for RRIRCRPPRLPRPRPRPRCYPRP it is -0.532; for RRIRDRPPRLPRPRPRPNPNPRP it is -0.136.
The figure for RRIRWRPPRLPRPRPRPAFGPRP is 0.53.
Regarding RRIRFRPPRLPRPRPRPFISPRP, the “shrunken log2 fold change” value is -0.691.
The figure for RRIRGRPPRLPRPRPRPSCYPRP is -0.0977.
The figure for RRIRQRPPRLPRPRPRPQFEPRP is -0.0143.
The figure for RRIRCRPPRLPRPRPRPHQKPRP is 0.00571; for RRIRTRPPRLPRPRPRPHTAPRP it is -0.0446; for RRIRFRPPRLPRPRPRPGVVPRP it is 0.231.
